We go through 2 molecules from patent US20190389941A1.

Where a chain is given by its changes, count along the chain named.

This experiment deals with complement proteins. The experiment can be described thus: cell-based or functional assay.

B1: G1098, P0DOX5 218-449 (Fc fusion)
chain: EPKSCDKTHTCPPCPAPELLGGPSVFLFPPKPKDTLMISRTPEVTCVVVDVSHEDPEVKFNWYVDGVEVHNAKTKPREEQYNSAYRVVSVLTVLHQDWLNGKEYKCKVSNKALPAPIEKTISKAKGQPREPQVYTLPPSREEMTKNQVSLTCLVKGFYPSDIAVEWESNGQPENNYKTTPPVLDSDGSFFLYSKLTVDKSRWQQGNVFSCSVMHGALHNHYTQKYLSLSPGKERKCCVECPPCP
Regarding B1, the CDC inhibition IC50 (anti-CD20-coated Will-2 cells plus serum) came out at 10 µg/mL.

B2: G1126, P0DOX5 218-449 (Fc fusion)
chain: B1 chain with E130R
As for B2, the CDC inhibition IC50 (anti-CD20-coated Will-2 cells plus serum) is 5 µg/mL.
